{"source": "IntAct's records for PubMed 21525957", "parents": {"B1": {"name": "Protein phosphatase Slingshot homolog 1 (Homo sapiens), Q8WYL5 (parent)", "chain": "MALVTLQRSPTPSAASSSASNSELEAGSEEDRKLNLSLSESFFMVKGAALFLQQGSSPQGQRSLQHPHKHAGDLPQHLQVMINLLRCEDRIKLAVRLESAWADRVRYMVVVYSSGRQDTEENILLGVDFSSKESKSCTIGMVLRLWSDTKIHLDGDGGFSVSTAGRMHIFKPVSVQAMWSALQVLHKACEVARRHNYFPGGVALIWATYYESCISSEQSCINEWNAMQDLESTRPDSPALFVDKPTEGERTERLIKAKLRSIMMSQDLENVTSKEIRNELEKQMNCNLKELKEFIDNEMLLILGQMDKPSLIFDHLYLGSEWNASNLEELQGSGVDYILNVTREIDNFFPGLFAYHNIRVYDEETTDLLAHWNEAYHFINKAKRNHSKCLVHCKMGVSRSASTVIAYAMKEFGWPLEKAYNYVKQKRSITRPNAGFMRQLSEYEGILDASKQRHNKLWRQQTDSSLQQPVDDPAGPGDFLPETPDGTPESQLPFLDDAAQPGLGPPLPCCFRRLSDPLLPSPEDETGSLVHLEDPEREALLEEAAPPAEVHRPARQPQQGSGLCEKDVKKKLEFGSPKGRSGSLLQVEETEREEGLGAGRWGQLPTQLDQNLLNSENLNNNSKRSCPNGMEDDAIFGILNKVKPSYKSCADCMYPTASGAPEASRERCEDPNAPAICTQPAFLPHITSSPVAHLASRSRVPEKPASGPTEPPPFLPPAGSRRADTSGPGAGAALEPPASLLEPSRETPKVLPKSLLLKNSHCDKNPPSTEVVIKEESSPKKDMKPAKDLRLLFSNESEKPTTNSYLMQHQESIIQLQKAGLVRKHTKELERLKSVPADPAPPSRDGPASRLEASIPEESQDPAALHELGPLVMPSQAGSDEKSEAAPASLEGGSLKSPPPFFYRLDHTSSFSKDFLKTICYTPTSSSMSSNLTRSSSSDSIHSVRGKPGLVKQRTQEIETRLRLAGLTVSSPLKRSHSLAKLGSLTFSTEDLSSEADPSTVADSQDTTLSESSFLHEPQGTPRDPAATSKPSGKPAPENLKSPSWMSKS"}}, "data": [{"variants_of": "B1", "details": "with cof1_human CFL1, P23528", "values": [{"variant": "S402D", "effect of a mutation on the interaction": "disrupting interaction"}]}, {"variants_of": "B1", "details": "with cof1_human CFL1, P23528", "remark": "another data set of the same source", "values": [{"variant": "S402E", "effect of a mutation on the interaction": "disrupting interaction"}]}]}
